# Laboratory results as given in PMC2898367 (The Journal of Biological Chemistry, 2010).
# T1: CD81 tagged with AcGFP or DsRED, P60033
# T1 chain: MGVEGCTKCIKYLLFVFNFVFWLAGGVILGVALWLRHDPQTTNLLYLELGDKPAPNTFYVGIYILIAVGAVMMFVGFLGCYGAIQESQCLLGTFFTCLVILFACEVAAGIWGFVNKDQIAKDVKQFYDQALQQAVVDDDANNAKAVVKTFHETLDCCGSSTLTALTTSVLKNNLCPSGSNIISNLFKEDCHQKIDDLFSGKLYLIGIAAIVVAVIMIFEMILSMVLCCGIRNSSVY
# T2: DsRED-tagged Occludin (UniProt Q16625 1-522)
# T2 sequence (looked up): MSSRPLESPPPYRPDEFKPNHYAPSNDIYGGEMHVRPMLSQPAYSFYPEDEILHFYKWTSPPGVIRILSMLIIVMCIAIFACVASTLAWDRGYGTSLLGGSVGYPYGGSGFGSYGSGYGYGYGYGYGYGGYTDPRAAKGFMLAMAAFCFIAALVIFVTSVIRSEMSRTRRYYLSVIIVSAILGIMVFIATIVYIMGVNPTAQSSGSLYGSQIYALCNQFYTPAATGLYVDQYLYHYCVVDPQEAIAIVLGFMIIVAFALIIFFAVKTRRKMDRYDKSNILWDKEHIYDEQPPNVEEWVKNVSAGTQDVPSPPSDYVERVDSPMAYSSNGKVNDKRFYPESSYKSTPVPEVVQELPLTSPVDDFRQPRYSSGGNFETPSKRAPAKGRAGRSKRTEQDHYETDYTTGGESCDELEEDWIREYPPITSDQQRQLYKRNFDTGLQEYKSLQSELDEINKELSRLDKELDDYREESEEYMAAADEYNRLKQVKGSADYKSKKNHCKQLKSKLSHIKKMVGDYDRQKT
# T3: CD81 tagged with AcGFP or DsRED (UniProt P60033 1-236)
# T3 sequence (looked up): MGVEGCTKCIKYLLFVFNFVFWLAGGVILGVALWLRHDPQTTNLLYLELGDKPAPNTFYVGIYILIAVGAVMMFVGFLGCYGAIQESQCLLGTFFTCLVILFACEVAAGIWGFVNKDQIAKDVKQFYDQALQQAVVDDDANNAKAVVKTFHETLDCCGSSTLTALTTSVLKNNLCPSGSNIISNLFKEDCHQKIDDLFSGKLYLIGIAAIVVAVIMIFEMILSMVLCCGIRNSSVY
# B1: AcGFP-tagged Claudin-4 (natural protein, UniProt O14493 1-209, looked up)
# chain: MASMGLQVMGIALAVLGWLAVMLCCALPMWRVTAFIGSNIVTSQTIWEGLWMNCVVQSTGQMQCKVYDSLLALPQDLQAARALVIISIIVAALGVLLSVVGGKCTNCLEDESAKAKTMIVAGVVFLLAGLMVIVPVSWTAHNIIQDFYNPLVASGQKREMGASLYVGWAASGLLLLGGGLLCCNCPPRTDKPYSAKYSAARSAAASNYV
# B2: CD81 tagged with AcGFP or DsRED, P60033 1-236 (natural protein)
# chain: MGVEGCTKCIKYLLFVFNFVFWLAGGVILGVALWLRHDPQTTNLLYLELGDKPAPNTFYVGIYILIAVGAVMMFVGFLGCYGAIQESQCLLGTFFTCLVILFACEVAAGIWGFVNKDQIAKDVKQFYDQALQQAVVDDDANNAKAVVKTFHETLDCCGSSTLTALTTSVLKNNLCPSGSNIISNLFKEDCHQKIDDLFSGKLYLIGIAAIVVAVIMIFEMILSMVLCCGIRNSSVY
# B3: AcGFP-tagged Claudin-9 (natural protein, UniProt O95484 1-217, looked up)
# chain: MASTGLELLGMTLAVLGWLGTLVSCALPLWKVTAFIGNSIVVAQVVWEGLWMSCVVQSTGQMQCKVYDSLLALPQDLQAARALCVIALLLALLGLLVAITGAQCTTCVEDEGAKARIVLTAGVILLLAGILVLIPVCWTAHAIIQDFYNPLVAEALKRELGASLYLGWAAAALLMLGGGLLCCTCPPPQVERPRGPRLGYSIPSRSGASGLDKRDYV
# B4: Claudin-1 tagged with AcGFP or DsRED (natural protein, UniProt O95832 1-211, looked up)
# chain: MANAGLQLLGFILAFLGWIGAIVSTALPQWRIYSYAGDNIVTAQAMYEGLWMSCVSQSTGQIQCKVFDSLLNLSSTLQATRALMVVGILLGVIAIFVATVGMKCMKCLEDDEVQKMRMAVIGGAIFLLAGLAILVATAWYGNRIVQEFYDPMTPVNARYEFGQALFTGWAAASLCLLGGALLCCSCPRKTTSYPTPRPYPKPAPSSGKDYV
# B5: AcGFP-tagged Claudin-11 (natural protein, UniProt O75508 1-207, looked up)
# chain: MVATCLQVVGFVTSFVGWIGVIVTTSTNDWVVTCGYTIPTCRKLDELGSKGLWADCVMATGLYHCKPLVDILILPGYVQACRALMIAASVLGLPAILLLLTVLPCIRMGQEPGVAKYRRAQLAGVLLILLALCALVATIWFPVCAHRETTIVSFGYSLYAGWIGAVLCLVGGCVILCCAGDAQAFGENRFYYTAGSSSPTHAKSAHV
# B6: AcGFP-tagged Claudin-17 (natural protein, UniProt P56750 1-224, looked up)
# chain: MAFYPLQIAGLVLGFLGMVGTLATTLLPQWRVSAFVGSNIIVFERLWEGLWMNCIRQARVRLQCKFYSSLLALPPALETARALMCVAVALSLIALLIGICGMKQVQCTGSNERAKAYLLGTSGVLFILTGIFVLIPVSWTANIIIRDFYNPAIHIGQKRELGAALFLGWASAAVLFIGGGLLCGFCCCNRKKQGYRYPVPGYRVPHTDKRRNTTMLSKTSTSYV
# B7: AcGFP-tagged Claudin-6 (natural protein, UniProt P56747 1-220, looked up)
# chain: MASAGMQILGVVLTLLGWVNGLVSCALPMWKVTAFIGNSIVVAQVVWEGLWMSCVVQSTGQMQCKVYDSLLALPQDLQAARALCVIALLVALFGLLVYLAGAKCTTCVEEKDSKARLVLTSGIVFVISGVLTLIPVCWTAHAIIRDFYNPLVAEAQKRELGASLYLGWAASGLLLLGGGLLCCTCPSGGSQGPSHYMARYSTSAPAISRGPSEYPTKNYV
# B8: AcGFP-tagged Claudin-12 (natural protein, UniProt P56749 1-244, looked up)
# chain: MGCRDVHAATVLSFLCGIASVAGLFAGTLLPNWRKLRLITFNRNEKNLTVYTGLWVKCARYDGSSDCLMYDTTWYSSVDQLDLRVLQFALPLSMLIAMGALLLCLIGMCNTAFRSSVPNIKLAKCLVNSAGCHLVAGLLFFLAGTVSLSPSIWVIFYNIHLNKKFEPVFSFDYAVYVTIASAGGLFMTSLILFIWYCTCKSLPSPFWQPLYSHPPSMHTYSQPYSARSRLSAIEIDIPVVSHTT
# Key:
# Assay in all cases: FRET or BRET
# [1] = target: CD81 tagged with AcGFP or DsRED (UniProt P60033)
# [2] = target: B4
# [3] = target: T1, CD81 tagged with AcGFP or DsRED, P60033; conditions: remark: other sources report otherwise
# DsRED-tagged Occludin = target: T2, DsRED-tagged Occludin
# [4] = target: T3, CD81 tagged with AcGFP or DsRED
Molecule,%FRET [2] [%],%FRET (DsRED-tagged Occludin) [%],also measured
Claudin-1 tagged with AcGFP or DsRED (from UniProt O95832 1-211) (natural protein),–,–,"%FRET [1]: 25%; %FRET (after 10 mM MβCD, 1 h) [1]: 35%"
B1,18,–,–
B2,–,–,"%FRET (after 10 mM MβCD, 1 h) [3]: 55%; %FRET (untreated cells) [3]: 63%"
B3,18,18,%FRET [4]: 63%
B4,–,48,–
B5,–,23,–
B6,–,40,–
B7,31,27,%FRET [4]: 50%
B8,–,38,–
